Key:
KHC(1–891)-3xmCit = assay: stepwise photobleaching of single molecules (TIRF microscopy); lysates of COS cells expressing 3xmCit-tagged constructs, in flow chambers with Cy5-microtubules, with AMPPNP; number of bleaching steps of 160–200 spots for each construct
mCit-KHC = assay: FRET or BRET; FRET stoichiometry (average FRET efficiency, E AVE) in live COS cells coexpressing mCit- and mCFP-tagged motors; Kinesin-1 with HA-KLC coexpressed
[1] = target: the molecule itself; assay: cross-linking; cytosolic extracts of rat brain and detergent extracts of murine cortical neurons, with or without DMP; SDS-PAGE, immunoblot with anti-KIF1A

Molecule	stoichiometry N [1]	also measured
KHC(1–891)-3xmCit (domain or fragment)	–	stoichiometry N (KHC(1–891)-3xmCit): 2
mCFP-KHC (natural protein)	–	average FRET efficiency (E AVE), motor-to-motor (mCit-KHC): 2.1%
endogenous KIF1A in murine cortical neurons (natural protein, UniProt P33173 1-1695, looked up, KIF1A, endogenous protein of murine cortical neurons; source: endogenous, detergent extract of murine cortical neurons) MAGASVKVAVRVRPFNSREMSRDSKCIIQMSGSTTTIVNPKQPKETPKSFSFDYSYWSHTSPEDINYASQKQVYRDIGEEMLQHAFEGYNVCIFAYGQTGAGKSYTMMGKQEKDQQGIIPQLCEDLFSRINDTTNDNMSYSVEVSYMEIYCERVRDLLNPKNKGNLRVREHPLLGPYVEDLSKLAVTSYNDIQDLMDSGNKPRTVAATNMNETSSRSHAVFNIIFTQKRHDAETNITTEKVSKISLVDLAGSERADSTGAKGTRLKEGANINKSLTTLGKVISALAEMDSGPNKNKKKKKTDFIPYRDSVLTWLLRENLGGNSRTAMVAALSPADINYDETLSTLRYADRAKQIRCNAIINEDPNNKLIRELKDEVTRLRDLLYAQGLGDITDMTNALVGMSPSSSLSALSSRAASVSSLHERILFAPGSEEAIERLKETEKIIAELNETWEEKLRRTEAIRMEREALLAEMGVAMREDGGTLGVFSPKKTPHLVNLNEDPLMSECLLYYIKDGVTRVGREDAERRQDIVLSGHFIKEEHCIFRSDSRGGGEAVVTLEPCEGADTYVNGKKVTEPSILRSGNRIIMGKSHVFRFNHPEQARQERERTPCAETPAEPVDWAFAQRELLEKQGIDMKQEMEQRLQELEDQYRREREEATYLLEQQRLDYESKLEALQKQMDSRYYPEVNEEEEEPEDEVQWTERECELALWAFRKWKWYQFTSLRDLLWGNAIFLKEANAISVELKKKVQFQFVLLTDTLYSPLPPDLLPPEAAKDRETRPFPRTIVAVEVQDQKNGATHYWTLEKLRQRLDLMREMYDRAAEVPSSVVEDCDNVVTGGDPFYDRFPWFRLVGRAFVYLSNLLYPVPLVHRVAIVSEKGEVKGFLRVAVQAISADEEAPDYGSGVRQSGTAKISFDDQHFEKFQSESCPVVGMSRSGTSQEELRIVEGQGQGADAGPSADEVNNNTCSAVPPEGLMDSPEKAALDGPLDTALDHLRLGSTFTFRVTVLQASSISAEYADIFCQFNFIHRHDEAFSTEPLKNTGRGPPLGFYHVQNIAVEVTKSFIEYIKSQPIVFEVFGHYQQHPFPPLCKDVLSPLRPSRRHFPRVMPLSKPVPATKLSTMTRPSPGPCHCKYDLLVYFEICELEANGDYIPAVVDHRGACMGTFLLHQGIQRRITVTLLHETGSHIRWKEVRELVVGRIRNTPETDEALIDPNILSLNILSSGYVHPAQDDRVFFGNDTRTFYQFEAAWDSSMHNSLLLNRVTPYREKIYMTLSAYIEMENCTQPAVITKDFCMVFYSRDAKLPASRSIRNLFGSGSLRATEGNRVTGVYELSLCHVADAGSPGMQRRRRRVLDTSVAYVRGEENLAGWRPRSDSLILDHQWELEKLSLLQEVEKTRHYLLLREKLETTQRPGPEVLSPASSEDSESRSSSGASSPLSAEGQPSPLEAPNERQRELAVKCLRLLMHTFNREYTHSHVCISASESKLSEMSVTLMRDPSMSPLGAATLTPSSTCPSLIEGRYGATDVRTPQPCSRPASPEPELLPELDSKKTPSPVRATETEKEPQRLLVPDIQEIRVSPIVSKKGYLHFLEPHTAGWAKRFVVVRRPYAYMYNSDKDTVERFVLNLSTAQVEYSEDQQAMLKTPNTFAVCTEHRGILLQANSDKDMHDWLYAFNPLLAGTIRSKLSRRRSAQMRV	2	–
endogenous KIF1A in rat brain cytosol (natural protein, rat (endogenous in rat brain), UniProt F1M4A4 1-1707, looked up, KIF1A, endogenous protein of rat brain cytosol; source: endogenous, cytosolic extract of rat brain) MAGASVKVAVRVRPFNSREMSRDSKCIIQMSGSTTTIVNPKQPKETPKSFSFDYSYWSHTSPEDINYASQKQVYRDIGEEMLQHAFEGYNVCIFAYGQTGAGKSYTMMGKQEKDQQGIIPQLCEDLFSRINDTTNDNMSYSVEVSYMEIYCERVRDLLNPKNKGNLRVREHPLLGPYVEDLSKLAVTSYNDIQDLMDSGNKARTVAATNMNETSSRSHAVFNIIFTQKRHDAETNITTEKVSKISLVDLAGSERADSTGAKGTRLKEGANINKSLTTLGKVISALAEMDSGPNKNKKKKKTDFIPYRDSVLTWLLRENLGGNSRTAMVAALSPADINYDETLSTLRYADRAKQIRCNAIINEDPNNKLIRELKDEVTRLRDLLYAQGLGDITDTNTVPGGPKLTNALVGMSPSSSLSALSSRAASVSSLHERILFAPGSEEAIERLKETEKIIAELNETWEEKLRRTEAIRMEREALLAEMGVAMREDGGTLGVFSPKKTPHLVNLNEDPLMSECLLYYIKDGVTRVGREDAERRQDIVLSGHFIKEEHCIFRSDSRGGGEAVVTLEPCEGADTYVNGKKVTEPSILRSGNRIIMGKSHVFRFNHPEQARQERERTPCAETPAEPVDWAFAQRELLEKQGIDMKQEMEQRLQELEDQYRREREEATYLLEQQRLDYESKLEALQKQMDSRYYPEVNEEEEEPEDEVQWTERECELALWAFRKWKWYQFTSLRDLLWGNAIFLKEANAISVELKKKVQFQFVLLTDTLYSPLPPDLLPPEAAKDRETRPFPRTIVAVEVQDQKNGATHYWTLEKLRQRLDLMREMYDRAAEVPSSVVEDCDNVVTGGDPFYDRFPWFRLVGRAFVYLSNLLYPVPLVHRVAIVSEKGEVKGFLRVAVQAISADEEAPDYGSGVRQSGTAKISFDDQHFEKFQSESCPVVGMSRSGTSQEELRIVEGQGQGADAGPSADEVNNNTCSAVPPEGLLDSPEKAALDGPLDTALDHLRLGSTFTFRVTVLQASSISAEYADIFCQFNFIHRHDEAFSTEPLKNTGRGPPLGFYHVQNIAVEVTKSFIEYIKSQPIVFEVFGHYQQHPFPPLCKDVLSPLRPSRRHFPRVMPLSKPVPATKLSTMTRPSPGPCHCKYDLLVYFEICELEANGDYIPAVVDHRGGMPCMGTFLLHQGIQRRITVTLLHETGSHIRWKEVRELVVGRIRNTPETDEALIDPNILSLNILSSGYVHPAQDDRQFLDSDIPRTFYQFEAAWDSSMHNSLLLNRVTPYREKIYMTLSAYIEMENCTQPAVITKDFCMVFYSRDAKLPASRSIRNLFGSGSLRATEGNRVTGVYELSLCHVADAGSPGMQRRRRRVLDTSVAYVRGEENLAGWRPRSDSLILDHQWELEKLSLLQEVEKTRHYLLLREKLETTQRPVPEVLSPASSEDSESRSSSGASSPLSAEGQPSPLEVPNERQRELAVKCLRLLMHTFNREYTHSHVCISASESKLSEMSVTLMRDPSMSPLGAATLTPSSTCPSLIEGRYGATDVRTPQPCSRPASPEPELLPELDSKKTPSPVRATETEKEPQRLLVPDIQEIRVSPIVSKKGYLHFLEPHTAGWAKRFVVVRRPYAYMYNSDKDTVERFVLNLSTAQVEYSEDQQAMLKTPNTFAVCTEHRGILLQANSDKDMHDWLYAFNPLLAGTIRSKLSRRRSAQMRV	2	–
